From US20140248254A1, “THE USE OF ACHE AS NUCLEASE” (priority 2011, published 2014)

B1: Mus AChE (protein)
chain: EGREDPQLLVRVRGGQLRGIRLKAPGGPVSAFLGIPFAEPPVGSRRFMPPEPKRPWSGVLDATTFQNVCYQYVDTLYPGFEGTEMWNPNRELSEDCLYLNVWTPYPRPASPTPVLIWIYGGGFYSGAASLDVYDGRFLAQVEGAVLVSMNYRVGTFGFLALPGSREAPGNVGLLDQRLALQWVQENIAAFGGDPMSVTLFGESAGAASVGMHILSLPSRSLFHRAVLQSGTPNGPWATVSAGEARRRATLLARLVGCPPGGAGGNDTELIACLRTRPAQDLVDHEWHVLPQESIFRFSFVPVVDGDFLSDTPEALINTGDFQDLQVLVGVVKDEGSYFLVYGVPGFSKDNESLISRAQFLAGVRIGVPQASDLAAEAVVLHYTDWLHPEDPTHLRDAMSAVVGDHNVVCPVAQLAGRLAAQGARVYAYIFEHRASTLTWPLWMGVPHGYEIEFIFGLPLDPSLNYTTEERIFAQRLMKYWTNFARTGDPNDPRDSKSPQWPPYTTAAQQYVSLNLKP
B2: Homo AChE (protein)
chain: EGREDAELLVTVRGGRLRGIRLKTPGGPVSAFLGIPFAEPPMGPRRFLPPEPKQPWSGVVDATTFQSVCYQYVDTLYPGFEGTEMWNPNRELSEDCLYLNVWTPYPRPTSPTPVLVWIYGGGFYSGASSLDVYDGRFLVQAERTVLVSMNYRVGAFGFLALPGSREAPGNVGLLDQRLALQWVQENVAAFGGDPTSVTLFGESAGAASVGMHLLSPPSRGLFHRAVLQSGAPNGPWATVGMGEARRRATQLAHLVGCPPGGTGGNDTELVACLRTRPAQVLVNHEWHVLPQESVFRFSFVPVVDGDFLSDTPEALINAGDFHGLQVLVGVVKDEGSYFLVYGAPGFSKDNESLISRAEFLAGVRVGVPQVSDLAAEAVVLHYTDWLHPEDPARLREALSDVVGDHNVVCPVAQLAGRLAAQGARVYAYVFEHRASTLSWPLWMGVPHGYEIEFIFGIPLDPSRNYTAEEKIFAQRLMRYWANFARTGDPNEPRDPKAPQWPPYTAGAQQYVSLDLR
B3: AChE (protein, listed as Homo Sapiens)
chain: MRPPQCLLHTPSLASPLLLLLLWLLGGGVGAEGREDAELLVTVRGGRLRGIRLKTPGGPVSAFLGIPFAEPPMGPRRFLPPEPKQPWSGVVDATTFQSVCYQYVDTLYPGFEGTEMWNPNRELSEDCLYLNVWTPYPRPTSPTPVLVWIYGGGFYSGASSLDVYDGRFLVQAERTVLVSMNYRVGAFGFLALPGSREAPGNVGLLDQRLALQWVQENVAAFGGDPTSVTLFGESAGAASVGMHLLSPPSRGLFHRAVLQSGAPNGPWATVGMGEARRRATQLAHLVGCPPGGTGGNDTELVACLRTRPAQVLVNHEWHVLPQESVFRFSFVPVVDGDFLSDTPEALINAGDFHGLQVLVGVVKDEGSYFLVYGAPGFSKDNESLISRAEFLAGVRVGVPQVSDLAAEAVVLHYTDWLHPEDPARLREALSDVVGDHNVVCPVAQLAGRLAAQGARVYAYVFEHRASTLSWPLWMGVPHGYEIEFIFGIPLDPSRNYTAEEKIFAQRLMRYWANFARTGDPNEPRDPKAPQWPPYTAGAQQYVSLDLRPLEVRRGLRAQACAFWNRFLPKLLSATDTLDEAERQWKAEFHRWSSYMVHWKNQFDHYSKQDRCSDL

Columns and labels:
[1] = test system: plasmid DNA (pEGFP-C1 plasmid); experiment: In vitro DNase activity: cleavage of plasmid DNA by purified protein; format: biochemical; conditions: for cleavage of plasmid DNA from supercoil (SC) into Nick and Linear structures: cell free system, 37° C.
Protocol: D. The results of 1% agarose electrophoresis before which pEGFP-C1 plasmid DNA and Homo or Mus AChE protein (0, 0.5, 1 and 2 μg) were coincubated for 6 h. EcoR was used to indicate linear DNA. MK indicated molecular weight marker.
E. the plasmid splitting with increasing time of the incubation of pEGFP-C1 plasmid DNA (150 ng) and Homo or Mus AChE protein (1 μg)). The above experiment was repeated for 3 times.
G. Commercial AChE isolated from Ee1 was incubated in different doses with plasmid DNA, and two bovine serum albumins (BSA1, BSA2) purchased from different companies were used as control at the same time; after being incubated for 5 h, they were subjected to DNA gel electrophoresis.
H. Commercial AChE isolated from Ee1 was incubated with plasmid DNA for different durations, and two bovine serum albumins (BSA1, BSA2) purchased from different companies were used as control at the same time. They were then subjected to DNA gel electrophoresis.
B. The influence of pH value on AChE nuclease activity. Plasmid DNA was incubated with Homo AChE protein under different pH conditions for 3 h.
Purified plasmid DNA was used as substrate for detection. In the experiment of cleaving of plasmid DNA, 0.15 μg of plasmid DNA with a transfection-grade purity (pEGFP-C1 plasmid, Clotech) was added to 10 μl buffer system containing (5.0 mM Tris-HCl, PH 7.5; 2.5 mM CaCl2; 5.0 mM MgCl2). 1 μg (or an amount indicated in Examples) of purified AChE proteins of human or mouse origin (AChE 1-547AA corresponding to human; AChE1-548AA corresponding to mouse) was further added, and incubated in 37° C. Sampling at 6 h (or timepoints indicated in Examples).

[2] = test system: DNA; experiment: Dissociation constant between protein and DNA (Bio Core T100 assay); format: binding
Text: AChE protein and DNase I presented similar binding curves.
Meanwhile, the inventors detected environment characteristics in which AChE cleaving DNA. DNase activity of AChE was Mg2+-dependent, while Ca2+ could only play a weak supporting role (FIG. 5a). In a relatively wide pH range of pH 7.0-10.0 (similar to in vivo pH environment during apoptosis), AChE can fully play its function of cleaving DNA (FIG. 5b).

[3] = test system: HeLa cell; experiment: Screening Method 3: DNA breakage (Tunnel) in fixed, permeabilized HeLa cells treated with protein; format: cell-based, human; conditions: AChE protein 1 μg/μl, 1-2 hr 37° C., compared with BSA group
Protocol: HeLa cells were plated in 96-well plate with a 60% density, and after complete adherence, the cells were fixed with 4% PFA for 10 min, and permeabilized with 0.1% sodium citrate +0.1% Triton X-100 for 10 min, for twice. After PBS washing, cells were divided into five groups, as follows:
AChE protein group: HeLa cell, treated with AChE protein (1 μg/μl) after fixation and permeabilization treatment;
Cells of each group were incubated for 1-2 hr in 37° C.; Washed twice with PBS, and fixed with 4% PFA for 10 min. Tunnel reagent was added, incubated for 1 hr in 37° C.; and then washed three times with PBS, stained with Hoechest. Observation was performed by fluorescence microscope.

Row | Molecule | cleavage of plasmid DNA from supercoil (SC) into Nick and Linear structures [1] | DNA cleaving activity at pH 5-6 ([1]; Homo AChE protein, pH 5-6, 3 h) | DNA cleaving activity at pH 7-10 ([1]; Homo AChE protein, pH 7-10, 3 h) | affinity for DNA relative to that of DNase I ([2]; from Kd values) | Kd ([2]; software analysis of binding curves) | intracellular DNA breakage [3]
1 | B1 | effectively cleave plasmid DNA |  |  |  |  | 
2 | B2 | effectively cleave plasmid DNA |  |  |  |  | 
3 | B3 |  | reduced slightly | can effectively function to cleave DNA | about 74% | 1530 nM | obvious breakage
